Earlier results on three substances are cited in publication PMC3373146.

What is called Kd is the equilibrium constant for the complex coming apart.

For data set [1], the target named is KCa2.1 (SK1) (UniProt Q92952).
For data set [2], the target named is KCa2.2 (SK2) (UniProt Q9H2S1).
The target in data set [3] is KCa2.3 (SK3) (UniProt Q9UGI6).
In data set [4] the target is Kv2.1 (UniProt Q14721).
The target of data set [5] is Kv2.1 (UniProt Q14721). This is another data set of the same source.

Like-named read-outs stand apart in the source and are kept apart here.

Kv2.1, sequence (Q14721 whole entry): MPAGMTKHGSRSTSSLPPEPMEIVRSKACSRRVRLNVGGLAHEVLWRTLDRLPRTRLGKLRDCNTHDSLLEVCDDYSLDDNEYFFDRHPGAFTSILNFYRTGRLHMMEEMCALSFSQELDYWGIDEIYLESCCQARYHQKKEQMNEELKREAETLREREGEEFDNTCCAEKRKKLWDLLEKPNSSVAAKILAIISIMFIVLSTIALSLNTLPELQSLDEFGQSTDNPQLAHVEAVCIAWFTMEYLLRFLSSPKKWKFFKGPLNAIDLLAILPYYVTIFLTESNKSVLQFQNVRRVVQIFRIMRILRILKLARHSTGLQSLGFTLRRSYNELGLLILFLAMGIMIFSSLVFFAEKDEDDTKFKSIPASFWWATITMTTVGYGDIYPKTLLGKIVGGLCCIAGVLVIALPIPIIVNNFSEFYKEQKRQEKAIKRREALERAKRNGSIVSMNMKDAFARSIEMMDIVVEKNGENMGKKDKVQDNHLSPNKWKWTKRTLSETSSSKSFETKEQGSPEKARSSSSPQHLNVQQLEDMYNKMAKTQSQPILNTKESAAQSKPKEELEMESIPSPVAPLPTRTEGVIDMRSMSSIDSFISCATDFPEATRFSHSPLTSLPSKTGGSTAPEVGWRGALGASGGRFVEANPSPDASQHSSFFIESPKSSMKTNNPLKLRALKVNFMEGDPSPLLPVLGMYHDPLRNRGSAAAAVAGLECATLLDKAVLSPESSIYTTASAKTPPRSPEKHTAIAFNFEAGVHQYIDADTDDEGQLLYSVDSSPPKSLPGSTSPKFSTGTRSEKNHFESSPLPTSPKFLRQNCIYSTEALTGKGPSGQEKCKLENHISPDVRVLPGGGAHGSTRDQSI
KCa2.2 (SK2), sequence (Q9H2S1 whole entry): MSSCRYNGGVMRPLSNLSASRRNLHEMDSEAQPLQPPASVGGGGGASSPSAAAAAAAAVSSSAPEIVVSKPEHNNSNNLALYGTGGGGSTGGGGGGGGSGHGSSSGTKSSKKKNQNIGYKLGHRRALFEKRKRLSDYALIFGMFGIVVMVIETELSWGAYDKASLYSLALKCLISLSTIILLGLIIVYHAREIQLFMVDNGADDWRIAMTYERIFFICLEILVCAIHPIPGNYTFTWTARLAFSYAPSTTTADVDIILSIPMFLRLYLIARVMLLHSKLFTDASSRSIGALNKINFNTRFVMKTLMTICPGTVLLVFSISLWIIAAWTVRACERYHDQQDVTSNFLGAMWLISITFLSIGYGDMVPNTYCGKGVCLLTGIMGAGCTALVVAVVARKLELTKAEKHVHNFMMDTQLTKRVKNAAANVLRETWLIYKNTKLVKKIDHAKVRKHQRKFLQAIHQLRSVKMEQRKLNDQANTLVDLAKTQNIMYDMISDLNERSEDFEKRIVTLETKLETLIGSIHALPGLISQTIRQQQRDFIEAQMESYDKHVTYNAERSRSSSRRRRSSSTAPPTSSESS
KCa2.1 (SK1), sequence (Q92952 whole entry): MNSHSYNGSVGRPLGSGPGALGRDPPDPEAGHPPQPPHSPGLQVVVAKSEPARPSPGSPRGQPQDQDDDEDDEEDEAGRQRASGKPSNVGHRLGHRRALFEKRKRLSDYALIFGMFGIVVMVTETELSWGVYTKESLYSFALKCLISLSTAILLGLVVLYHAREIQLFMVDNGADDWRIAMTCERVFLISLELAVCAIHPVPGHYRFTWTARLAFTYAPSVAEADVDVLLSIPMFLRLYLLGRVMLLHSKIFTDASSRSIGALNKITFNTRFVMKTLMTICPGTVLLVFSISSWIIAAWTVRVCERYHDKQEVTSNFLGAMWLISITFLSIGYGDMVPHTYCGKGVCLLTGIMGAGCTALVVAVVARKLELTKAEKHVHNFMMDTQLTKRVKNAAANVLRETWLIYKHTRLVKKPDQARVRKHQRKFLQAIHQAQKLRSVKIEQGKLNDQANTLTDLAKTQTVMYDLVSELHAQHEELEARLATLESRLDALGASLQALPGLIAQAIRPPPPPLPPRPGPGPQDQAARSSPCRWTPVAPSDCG
hanatoxin 2, sequence (P56853 whole entry): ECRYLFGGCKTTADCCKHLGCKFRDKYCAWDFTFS
KCa2.3 (SK3), sequence (Q9UGI6 whole entry): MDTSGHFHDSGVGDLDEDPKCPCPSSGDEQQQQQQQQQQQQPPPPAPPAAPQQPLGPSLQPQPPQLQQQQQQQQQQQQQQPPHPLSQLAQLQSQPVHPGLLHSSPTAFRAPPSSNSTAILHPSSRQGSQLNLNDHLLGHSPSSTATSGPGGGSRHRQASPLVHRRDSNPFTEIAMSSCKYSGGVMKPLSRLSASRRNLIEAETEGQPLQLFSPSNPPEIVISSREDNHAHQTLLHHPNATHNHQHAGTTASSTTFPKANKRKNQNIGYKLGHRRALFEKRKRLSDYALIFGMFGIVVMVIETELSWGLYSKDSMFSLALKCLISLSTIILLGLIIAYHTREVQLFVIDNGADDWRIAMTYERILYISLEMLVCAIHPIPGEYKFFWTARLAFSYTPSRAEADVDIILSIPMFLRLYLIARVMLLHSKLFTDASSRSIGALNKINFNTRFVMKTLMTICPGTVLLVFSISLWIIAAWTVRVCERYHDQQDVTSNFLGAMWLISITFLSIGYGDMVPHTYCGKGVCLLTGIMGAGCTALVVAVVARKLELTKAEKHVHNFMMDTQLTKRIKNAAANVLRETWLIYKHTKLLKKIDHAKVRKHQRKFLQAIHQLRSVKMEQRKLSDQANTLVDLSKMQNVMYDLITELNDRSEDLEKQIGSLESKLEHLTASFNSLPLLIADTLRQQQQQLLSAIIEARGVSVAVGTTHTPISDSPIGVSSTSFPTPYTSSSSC
hanatoxin 1, sequence (P56852 50-84): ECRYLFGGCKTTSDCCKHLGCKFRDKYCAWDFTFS

Turning to apamin (from UniProt P01500), the Kd was 0.39 nM in data set [1], 0.004 nM in data set [2] and 0.011 nM in data set [3].
For hanatoxin 2 (from UniProt P56853), the Kd in data set [4] was 42 nM.
In the case of hanatoxin 1 (from UniProt P56852), the Kd in data set [5] was 42 nM.
